This note sets out measurements from patent US20220220204A1 (NANJING GENSCRIPT BIOTECH, published 2022).

Numbering of substitutions follows the chain as printed.

The target in the assay is human PD-L1 (PD-L1 aAPC/CHO-K1 cells) (human, UniProt Q9NZQ7 19-290). Briefly: cell-based or functional assay.
human PD-L1 (PD-L1 aAPC/CHO-K1 cells), sequence (Q9NZQ7 19-290): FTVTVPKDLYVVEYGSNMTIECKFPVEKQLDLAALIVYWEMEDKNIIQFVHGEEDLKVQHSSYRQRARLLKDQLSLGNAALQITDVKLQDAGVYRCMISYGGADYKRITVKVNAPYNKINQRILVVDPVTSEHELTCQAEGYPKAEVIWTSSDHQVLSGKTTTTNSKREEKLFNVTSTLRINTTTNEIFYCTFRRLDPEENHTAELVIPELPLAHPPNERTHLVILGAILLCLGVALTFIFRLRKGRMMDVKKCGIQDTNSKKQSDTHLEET

B1: PDL1HCv1 (antibody, human IgG1, kappa, N297A, V domains shown)
VH: EVQLVQSGAEVKKPGASVKVSCKASGYIFTGYGITWVRQAPGQGLEWMGEIFPRRVQTYYSEKFKGRVTMTTDTSTSTAYMELRSLRSDDTAVYYCARDYDPYFALDYWGQGTTVTVSS
VL: DIQMTQSPSSLSASVGDRVTITCRASQDVSTAVDWYQQKPGKAPKLLIYSASYRYTGVPDRFSGSGSGTDFTFTISSLQPEDIATYYCQQHYSIPFTFGQGTKLEIKR
For B1, the “Bottom (PD-1/PD-L1 blockade bioassay)” value came out at 28900, the “Log EC50 (PD-1/PD-L1 blockade bioassay)” value was -0.323 and the “Top (PD-1/PD-L1 blockade bioassay)” value is 113000.

B2: PDL1HCv5 (antibody, human IgG1, kappa, N297A, V domains shown)
VH: B1 VH with T72A
VL: B1 VL
For the molecule B2, the “Bottom (PD-1/PD-L1 blockade bioassay)” value turned out to be 27800, the “Log EC50 (PD-1/PD-L1 blockade bioassay)” value is -0.111 and the “Top (PD-1/PD-L1 blockade bioassay)” value stood at 110000.
